Test results as given in patent publication US20220031813A1, “INHIBITOR OF EXTRACELLULAR TRAP FORMATION IN LEUKOCYTES” (priority 2013, published 2022).

Experiments:
[1] = tested on: human neutrophils; assay: Rate of NETs formation in PMA-stimulated neutrophils after pre-treatment, counted by confocal microscopy; assay type: cell-based
[2] = tested on: human neutrophils; assay: DNA concentration in the culture supernatant, lactoferrin added after PMA stimulation; assay type: cell-based; details: p<0.001
Description: From heathy volunteer, 15 ml to 20 ml of peripheral blood was sampled for one cycle of experiment with an EDTA-containing syringe (needle: 18 to 22 G). After the blood sampling, 3 ml of mono-poly resolving medium (Cat No. DSBN100, DS Pharma Biomedical Co., Ltd.) contained in 15 ml conical tube, and then 3.5 ml of the whole blood were gently stacked in the lower-layer mono-poly resolving medium. The 15 ml conical tube was centrifuged at room temperature (15 to 30° C.) at 400×g for 20 minutes by a swing-type centrifuge, and then the conical tube was taken out gently. A brown plasma layer in the top layer and a lymphocyte/monocyte layer immediately below the brown plasma layer were removed by an aspirator or the like. A transparent layer below the lymphocyte/monocyte layer was removed as much as possible. A pale pink layer below the transparent layer was taken out by a Pasteur pipette. […]
(§1) The culture supernatant was recovered and centrifuged at 200×g for 10 minutes, and the supernatant was transferred to a new microscopic centrifuge tube. The DNA amount was measured by use of Picogreen dsDNA assay reagent (P11496 Invitrogen) in accordance with an accompanying protocol. […]

[3] = tested on: human neutrophils; assay: Scanning electron microscopy of neutrophils stimulated to form NETs; assay type: cell-based; details: pre-treatment 200 μg/ml, 3 hours after stimulation
Description: The observation by a scanning electron microscope was performed as follows. Eosinophil granulocytes were seeded on a glass cover or a glass bottom dish for cell culture in the number of 1×10^6 and pre-treated with 200 μg/ml of human lactoferrin or were not pre-treated before stimulation for NETs. Three hours later, the sample was pre-immobilized with 0.1 M phosphoric acid buffer (pH: 7.4) containing 2% glutaraldehyde at 4° C. for 1 hour. Next, the sample was post-immobilized with 0.1 M phosphoric acid buffer (pH: 7.4) containing 1% osmium tetroxide at 4° C. for 1 hour. After the immobilization, the sample was washed with 60% ethanol, with 70% ethanol, with 80% ethanol and with 95% ethanol while being gently shaken for 5 to 10 minutes, and immersed twice in 100% ethanol for 5 to 10 minutes to be dehydrated. Critical point drying was performed by substitution with isoamyl acetate for 10 to 15 minutes. The sample were covered with a layer of sublimated osmium tetroxide by use of an osmium plasma coating device (OPC80N, Filgen, Inc.) and observed by a scanning electron microscope (JSM-6320F, JEOL, Ltd.). In the case where the neutrophils were not stimulated, the neutrophils were kept spherical and no extracellular fiber was recognized. In the case where the neutrophils were stimulated with PMA, the cells were broken and many fiber components were formed.

[4] = tested on: human neutrophils; assay: DNA concentration in the culture supernatant (Picogreen) after pre-treatment; assay type: cell-based; details: pre-treatment 2, 20, 200 μg/ml, 3 hours after stimulation; FIG. 1-D
[5] = bovine proteins; cited from earlier work
[6] = tested on: human neutrophils; assay: Specificity experiment: inhibition of NETs formation by DNA concentration in the culture supernatant; assay type: cell-based; details: n=3, p<0.01, FIG. 10
Description: About 1 hour after the isolation of the neutrophils described in “1. Method of isolating human neutrophils” in Example 2, the neutrophils were pre-treated. On an 8-well microslide (Cat. No. ib 80826 Ibidi (registered trademark)), the neutrophils were seeded in 400 μl of culture DMEM+2% human serum Alb (serum human albumin; Product No. A9080 Sigma+4 mM L-glutamine) at a rate of about 1.0×10^5 cells/well, and stimulated with PMA (final concentration: 25 nM, stock: 10 mM in DMSO, Sigma Prod No. P8139). At thirty minutes before the stimulation, and at every one hour or every two hours after the stimulation, 200 μg/ml of human lactoferrin (stock: 100 mg/ml, 200 μl; Cat. No. SIGL6793, SIGMA) was added to perform inhibition [FIG. 2].
as §1, with “protocol. Treatment with human lactoferrin at one hour and two hours after the stimulation was a similar effect to the prior pre-treatment, the DNA concentration in the culture supernatant decreased, resulting in suppression of the release of the DNAs by the NETs [FIG. 2].” for “protocol.”

Molecule | rate of the NETs formed at plateau, compared with stimulation merely with PMA ([1]; pre-treatment 2 μg/ml for 30 minutes, then PMA 25 nM) | rate of the NETs formed at plateau, compared with stimulation merely with PMA ([1]; pre-treatment 20 μg/ml for 30 minutes, then PMA 25 nM) | formation of the NETs at plateau, compared with stimulation merely with PMA ([1]; pre-treatment 200 μg/ml for 30 minutes, then PMA 25 nM) | release of the DNAs to the outside of the cells (SYTOX green images) ([1]; pre-treatment 200 μg/ml, FIG. 1-C) | inhibitory effect on the formation of the NETs ([1]; pre-treatment with 2, 20 or 200 μg/ml, FIG. 1-A, 1-B) | DNA concentration in the culture supernatant ([2]; 200 μg/ml added one hour after PMA stimulation) | DNA concentration in the culture supernatant ([2]; 200 μg/ml added two hours after PMA stimulation) | fiber components of the NETs by scanning electron microscope [3] | DNA concentration in the culture supernatant [4] | Isoelectric point [5] | inhibition of the formation of the NETs [6]
human lactoferrin: human lactoferrin, Cat No. SIGL6793, SIGMA; called human neutrophil-derived lactoferrin (protein, UniProt P02788 20-710, looked up) Lactotransferrin: GRRRSVQWCAVSQPEATKCFQWQRNMRKVRGPPVSCIKRDSPIQCIQAIAENRADAVTLDGGFIYEAGLAPYKLRPVAAEVYGTERQPRTHYYAVAVVKKGGSFQLNELQGLKSCHTGLRRTAGWNVPIGTLRPFLNWTGPPEPIEAAVARFFSASCVPGADKGQFPNLCRLCAGTGENKCAFSSQEPYFSYSGAFKCLRDGAGDVAFIRESTVFEDLSDEAERDEYELLCPDNTRKPVDKFKDCHLARVPSHAVVARSVNGKEDAIWNLLRQAQEKFGKDKSPKFQLFGSPSGQKDLLFKDSAIGFSRVPPRIDSGLYLGSGYFTAIQNLRKSEEEVAARRARVVWCAVGEQELRKCNQWSGLSEGSVTCSSASTTEDCIALVLKGEADAMSLDGGYVYTAGKCGLVPVLAENYKSQQSSDPDPNCVDRPVEGYLAVAVVRRSDTSLTWNSVKGKKSCHTAVDRTAGWNIPMGLLFNQTGSCKFDEYFSQSCAPGSDPRSNLCALCIGDEQGENKCVPNSNERYYGYTGAFRCLAENAGDVAFVKDVTVLQNTDGNNNEAWAKDLKLADFALLCLDGKRKPVTEARSCHLAMAPNHAVVSRMDKVERLKQVLLHQQAKFGRNGSDCPDKFCLFQSETKNLLFNDNTECLARLHGKTTYEKYLGPQYVAGITNLKKCSTSPLLEACEFLRK | half | half | ¼ | inhibited | observed similarly to the bovine lactoferrin | decreased | decreased | form such fiber components in bundles | decreased in a concentration-dependent manner |  | 
angiogenin: bovine milk protein, known as a tumor angiogenesis factor, eluted from SP-Sepharose column (protein, UniProt P10152 24-148, looked up) Angiogenin-1: AQDDYRYIHFLTQHYDAKPKGRNDEYCFNMMKNRRLTRPCKDRNTFIHGNKNDIKAICEDRNGQPYRGDLRISKSEFQITICKHKGGSSRPPCRYGATEDSRVIVVGCENGLPVHFDESFITPRH |  |  |  |  |  |  |  |  |  | 9.5 | Neither lactoperoxidase nor angiogenin inhibited
